The values below come from PMC5785358, “The STENOFOLIA gene from Medicago alters leaf width, flowering time and chlorophyll content in transgenic wheat”.

Common to all, as to assay: EMSA; 10 mM Tris pH 7.5, 50 mM KCl, 1 mM DTT, 2.5% glycerol, 0.05% NP-40, 5 mM MgCl2, 0.5 mM EDTA, 5 ng/uL poly(dI.dC), 1 ug protein, 100 fmol probe, room temperature 40 min
Common to all, as to conditions: protein: recombinant; tags: MBP (N-terminal, pMAL-c2X); label: 3' biotin; blunt
Background: A gel shift assay detects complexes by their altered migration in electrophoresis.

One data set addresses T1, MBP-STF S3 (Medicago truncatula, UniProt G0ZGT3 1-90).
T1 sequence: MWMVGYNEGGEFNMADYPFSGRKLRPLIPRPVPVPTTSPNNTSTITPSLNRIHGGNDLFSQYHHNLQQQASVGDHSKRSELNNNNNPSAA

In data set [1] the target is T2, MBP-STF full length (STENOFOLIA) (Medicago truncatula, UniProt G0ZGT3 1-358).
T2 sequence: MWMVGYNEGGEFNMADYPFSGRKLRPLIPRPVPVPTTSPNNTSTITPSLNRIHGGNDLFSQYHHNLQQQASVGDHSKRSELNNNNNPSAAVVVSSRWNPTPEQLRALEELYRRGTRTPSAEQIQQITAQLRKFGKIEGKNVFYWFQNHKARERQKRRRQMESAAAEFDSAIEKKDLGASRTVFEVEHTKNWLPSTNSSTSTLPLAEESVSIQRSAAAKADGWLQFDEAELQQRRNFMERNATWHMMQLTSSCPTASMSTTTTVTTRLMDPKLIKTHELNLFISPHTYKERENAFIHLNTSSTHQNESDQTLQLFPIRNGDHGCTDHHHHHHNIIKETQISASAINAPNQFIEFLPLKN

The next data set deals with T3, MBP-STF S1 (Medicago truncatula, UniProt G0ZGT3 1-262).
T3 sequence: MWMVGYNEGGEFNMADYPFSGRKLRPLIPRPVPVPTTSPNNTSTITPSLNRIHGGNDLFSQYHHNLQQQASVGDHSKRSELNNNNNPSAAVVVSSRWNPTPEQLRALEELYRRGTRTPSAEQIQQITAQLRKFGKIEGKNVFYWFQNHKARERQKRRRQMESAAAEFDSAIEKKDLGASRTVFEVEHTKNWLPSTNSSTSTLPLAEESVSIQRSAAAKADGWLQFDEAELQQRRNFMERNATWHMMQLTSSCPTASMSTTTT

The next data set has as its target T4, MBP-STF S2 (Medicago truncatula, UniProt G0ZGT3 263-358).
T4 sequence: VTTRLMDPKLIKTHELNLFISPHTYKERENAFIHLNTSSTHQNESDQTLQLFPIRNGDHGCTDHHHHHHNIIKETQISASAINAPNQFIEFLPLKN

B1: TaACC-D1 probe (dsDNA)
DNA 1: TTCTTCCAGGTGAATACACCACAGTAGTAATATGGCATAATCTGACAAGATGAATCTCCTCATCGACCCATCCTTAATGTTGATTTGCTCTCTCTCTGTTTTCGGCGGTGCGTGCAGGTTCTGGACCACGGCATCTC
DNA 2: GAGATGCCGTGGTCCAGAACCTGCACGCACCGCCGAAAACAGAGAGAGAGCAAATCAACATTAAGGATGGGTCGATGAGGAGATTCATCTTGTCAGATTATGCCATATTACTACTGTGGTGTATTCACCTGGAAGAA
For B1, the figures for the binding result (in the data set with MBP-STF S3; in data set [1]) were “no binding” and “binds”, respectively.

B2: TaBEL-A1 probe (dsDNA)
DNA 1: GCTTGCGTGTGTGTGCATCAGAGAGAAAGAGAGAGAGAGAGAGGCCTGCCGCCCAAGATCTCTCTTGATCAGTGCCGAGATCATCAATCAGGGGGGCCTGCCATCCAAGTGGGCATCTCCATTTTTCTTCCTCCTCGAGCTGGTTTCCGAGCCTGATAAAACCACCCTCCCCGGCCTCGCTCAACTGCTCCCCAGC
DNA 2: GCTGGGGAGCAGTTGAGCGAGGCCGGGGAGGGTGGTTTTATCAGGCTCGGAAACCAGCTCGAGGAGGAAGAAAAATGGAGATGCCCACTTGGATGGCAGGCCCCCCTGATTGATGATCTCGGCACTGATCAAGAGAGATCTTGGGCGGCAGGCCTCTCTCTCTCTCTCTTTCTCTCTGATGCACACACACGCAAGC
B2: the binding result in data set [1] is given as “binds”.

B3: TaKN1 probe (TaKN-B1 sequence printed) (dsDNA)
DNA 1: TACTGCAGTATTGCCCTCCAGCTTTTTCCTCTCGCTCCCCATCTCCTTCCCTCTAATGATAGCTTAGAGAGAGAAGGAGAAAAGGCTATTCCGCTCAAGGCAAGGCAGGCAGGTACCCTTCTCCTTCCCCAAACCCAAACCCTTTTTCTCTTTCTCTCCGCCCAAGAACTTCACCTCAAGCTCAATCCGTCT
DNA 2: AGACGGATTGAGCTTGAGGTGAAGTTCTTGGGCGGAGAGAAAGAGAAAAAGGGTTTGGGTTTGGGGAAGGAGAAGGGTACCTGCCTGCCTTGCCTTGAGCGGAATAGCCTTTTCTCCTTCTCTCTCTAAGCTATCATTAGAGGGAAGGAGATGGGGAGCGAGAGGAAAAAGCTGGAGGGCAATACTGCAGTA
With B3, in data set [1], the binding result is reported as “binds”.

B4: TaACC-B1 probe (dsDNA)
DNA 1: TTCTTCCAGGTGAATACACAGCACTAACATGGCATAATCTGACAGGATAAATCTCCTTATCGATCTATCCTTAATGCTCATCTGCTCTCTCTCTCTCTCTCTCTCTCTTTTTCGGTGGTGCGTGCAGGTCCTGGACCACGGCATCTCGACGGAGCTGATGGACAAGGTGGAGAAGATGACCAAGG
DNA 2: CCTTGGTCATCTTCTCCACCTTGTCCATCAGCTCCGTCGAGATGCCGTGGTCCAGGACCTGCACGCACCACCGAAAAAGAGAGAGAGAGAGAGAGAGAGAGCAGATGAGCATTAAGGATAGATCGATAAGGAGATTTATCCTGTCAGATTATGCCATGTTAGTGCTGTGTATTCACCTGGAAGAA
For B4, in data set [1], the binding result is on record as “binds”.

B5: Ta6SFT-A1 probe (dsDNA)
DNA 1: ACTCCACGCACTAACTTTTTTAATAAGGTCTTCTGTGTGGGGAAAAAGACGGGATCTCTCTCTCTAGACATAATCAAAAGGGATTGTTTAACTCACACCAAATTTGGAGGAAAACTTTGACAGCAAAACAGGGGAAAACAGAGTTTCCATAGCGGGTTGGGGGTTCACTTCACAGTGGCGTAGATTGGA
DNA 2: TCCAATCTACGCCACTGTGAAGTGAACCCCCAACCCGCTATGGAAACTCTGTTTTCCCCTGTTTTGCTGTCAAAGTTTTCCTCCAAATTTGGTGTGAGTTAAACAATCCCTTTTGATTATGTCTAGAGAGAGAGATCCCGTCTTTTTCCCCACACAGAAGACCTTATTAAAAAAGTTAGTGCGTGGAGT
For B5, the binding result with MBP-STF S3 is reported as “no binding”; in data set [1], “binds”; with MBP-STF S1, “binds”; in the data set with MBP-STF S2 it was “no binding”.
